Assay results: patent US20230051715A1 (MABWELL THERAPEUTICS, published 2023)

Experiments:
[1] = target: T1, C1s in normal human serum (NHS, CompTech NHS) (human, UniProt P09871 16-688); test: cell-based or functional assay
T1 sequence (looked up): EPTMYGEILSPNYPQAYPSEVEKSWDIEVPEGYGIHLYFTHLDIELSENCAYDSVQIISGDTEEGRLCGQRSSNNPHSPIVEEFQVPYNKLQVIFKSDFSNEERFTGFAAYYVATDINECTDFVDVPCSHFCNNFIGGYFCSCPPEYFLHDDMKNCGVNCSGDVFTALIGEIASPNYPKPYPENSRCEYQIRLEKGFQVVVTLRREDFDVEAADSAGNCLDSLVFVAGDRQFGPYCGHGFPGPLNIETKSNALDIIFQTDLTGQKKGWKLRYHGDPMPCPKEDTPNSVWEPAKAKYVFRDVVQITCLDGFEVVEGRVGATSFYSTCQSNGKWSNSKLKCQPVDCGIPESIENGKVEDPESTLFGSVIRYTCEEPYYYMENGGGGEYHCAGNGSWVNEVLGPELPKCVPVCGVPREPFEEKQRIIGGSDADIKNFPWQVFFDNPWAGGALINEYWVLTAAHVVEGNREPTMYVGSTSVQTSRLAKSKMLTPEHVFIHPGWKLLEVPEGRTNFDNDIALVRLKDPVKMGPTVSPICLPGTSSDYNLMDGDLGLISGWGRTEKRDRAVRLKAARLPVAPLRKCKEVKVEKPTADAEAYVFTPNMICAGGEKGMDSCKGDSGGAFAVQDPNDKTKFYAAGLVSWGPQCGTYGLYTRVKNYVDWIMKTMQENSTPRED

[2] = target: T2, C1s in normal cynomolgus monkey serum (CMS, CompTech NCYS) (cynomolgus monkey, UniProt A0A2K5VQX9 16-685); test: cell-based or functional assay
T2 sequence: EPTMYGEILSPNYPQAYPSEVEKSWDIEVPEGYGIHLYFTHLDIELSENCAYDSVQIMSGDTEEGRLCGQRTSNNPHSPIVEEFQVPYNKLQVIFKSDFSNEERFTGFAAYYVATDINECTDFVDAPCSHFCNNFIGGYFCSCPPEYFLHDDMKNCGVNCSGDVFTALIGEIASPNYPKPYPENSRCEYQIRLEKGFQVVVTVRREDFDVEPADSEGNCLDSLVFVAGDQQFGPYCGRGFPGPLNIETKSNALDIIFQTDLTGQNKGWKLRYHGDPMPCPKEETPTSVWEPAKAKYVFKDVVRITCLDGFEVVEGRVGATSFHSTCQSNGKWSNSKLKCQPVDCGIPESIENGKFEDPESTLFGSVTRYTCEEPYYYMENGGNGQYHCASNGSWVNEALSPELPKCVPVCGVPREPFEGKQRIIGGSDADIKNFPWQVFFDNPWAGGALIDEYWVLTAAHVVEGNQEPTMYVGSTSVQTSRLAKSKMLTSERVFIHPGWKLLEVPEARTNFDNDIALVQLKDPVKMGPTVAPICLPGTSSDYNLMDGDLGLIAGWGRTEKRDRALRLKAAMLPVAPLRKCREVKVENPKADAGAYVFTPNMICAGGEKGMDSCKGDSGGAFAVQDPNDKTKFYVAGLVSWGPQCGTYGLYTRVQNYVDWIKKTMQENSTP

[3] = target: T3, human C1s deletion mutant 1 (M151) (human) (UniProt P09871); test: ELISA, plate coated with 200 ng/well HuC1s(M151), OD450nm
T3 sequence: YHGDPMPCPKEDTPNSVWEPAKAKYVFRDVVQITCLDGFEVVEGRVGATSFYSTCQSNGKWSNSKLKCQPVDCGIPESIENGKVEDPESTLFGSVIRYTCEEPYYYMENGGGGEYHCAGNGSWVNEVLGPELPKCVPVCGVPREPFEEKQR

[4] = target: T4, human C1s deletion mutant 2 (NHC) (human, UniProt P09871 16-437); test: ELISA, plate coated with 200 ng/well HuC1s(NHC), OD450nm
T4 construct: C-terminal 6xHis tag; also called HuC1s(NHC); huC1sNHC
T4 sequence: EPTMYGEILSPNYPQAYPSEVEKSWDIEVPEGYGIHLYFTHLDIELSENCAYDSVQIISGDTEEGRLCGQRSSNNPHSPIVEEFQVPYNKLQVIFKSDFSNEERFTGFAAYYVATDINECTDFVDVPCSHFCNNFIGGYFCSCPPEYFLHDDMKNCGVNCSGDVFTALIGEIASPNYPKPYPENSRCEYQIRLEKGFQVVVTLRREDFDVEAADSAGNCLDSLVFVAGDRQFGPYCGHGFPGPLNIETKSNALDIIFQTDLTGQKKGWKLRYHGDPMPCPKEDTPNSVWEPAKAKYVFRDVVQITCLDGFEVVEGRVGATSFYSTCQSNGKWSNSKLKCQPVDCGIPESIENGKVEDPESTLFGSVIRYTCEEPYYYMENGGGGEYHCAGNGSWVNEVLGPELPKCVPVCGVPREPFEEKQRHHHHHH
Method: (§1) ELISA was carried out by first coating 96-well plates with 200 ng/well of full-length or truncated C1s proteins overnight. The next morning, plates were blocked with SuperBlock T20 blocking buffer (Thermo Scientific 37536) for 1 h with gentle shaking. Then, various concentrations of anti-C1s antibodies diluted in SuperBlock T20 blocking buffer were added to the plates and incubated for 1 h with gentle shaking. Mouse IgG (Sigma-Aldrich 15381) and human IgG1 (BioXCell BP0297) were used as negative controls. The plates were washed before incubating with HRP conjugated secondary antibodies diluted in SuperBlock T20 blocking buffer (goat anti-mouse IgG (H+L) cross-adsorbed secondary antibody HRP (Invitrogen G-21040) or goat anti-human IgG antibody, HRP conjugate (Millipore AP309P)) for 1 h with gentle shaking. At last, the plates were washed and color developed with ELISA liquid HRP substrate (Sigma-Aldrich), followed by stopping the reaction with addition of 1M H₂SO₄ in the same volume as the ELISA liquid substrate. Bound antibody was measured by absorbance at OD₄₅₀ₙₘ.

[5] = target: T5, full-length human C1s (produced in house) (human, UniProt P09871 16-688); test: ELISA, plate coated with 200 ng/well full-length HuC1s, OD450nm
T5 construct: Called full-length; Partly auto-cleaved at R422-I423 on blots; also called HuC1s; Hu C1s
T5 sequence: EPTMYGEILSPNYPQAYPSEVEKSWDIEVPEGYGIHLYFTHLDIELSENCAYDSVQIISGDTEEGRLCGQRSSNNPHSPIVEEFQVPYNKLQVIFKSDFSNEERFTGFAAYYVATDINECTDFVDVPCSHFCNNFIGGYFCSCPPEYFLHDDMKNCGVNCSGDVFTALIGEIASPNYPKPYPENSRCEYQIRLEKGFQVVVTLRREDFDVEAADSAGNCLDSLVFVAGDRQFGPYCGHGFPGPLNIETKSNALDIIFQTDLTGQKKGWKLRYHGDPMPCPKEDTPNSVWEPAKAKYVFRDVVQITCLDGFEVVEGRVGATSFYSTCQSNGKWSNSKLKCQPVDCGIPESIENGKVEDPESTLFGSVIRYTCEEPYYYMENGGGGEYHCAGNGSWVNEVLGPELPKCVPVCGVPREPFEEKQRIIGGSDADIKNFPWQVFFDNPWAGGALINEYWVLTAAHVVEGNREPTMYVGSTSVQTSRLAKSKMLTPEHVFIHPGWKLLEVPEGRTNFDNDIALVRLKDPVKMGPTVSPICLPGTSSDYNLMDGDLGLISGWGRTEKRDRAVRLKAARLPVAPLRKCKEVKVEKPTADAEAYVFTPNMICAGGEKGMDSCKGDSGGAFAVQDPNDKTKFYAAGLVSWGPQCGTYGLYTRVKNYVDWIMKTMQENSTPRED
Method: as §1

[6] = target: T6, full-length mouse C1s (produced in house) (mouse, UniProt Q8CG14 16-688); test: ELISA, plate coated with 200 ng/well full-length MoC1s, OD450nm
T6 construct: Called full-length; also called MoC1s; moC1s
T6 sequence: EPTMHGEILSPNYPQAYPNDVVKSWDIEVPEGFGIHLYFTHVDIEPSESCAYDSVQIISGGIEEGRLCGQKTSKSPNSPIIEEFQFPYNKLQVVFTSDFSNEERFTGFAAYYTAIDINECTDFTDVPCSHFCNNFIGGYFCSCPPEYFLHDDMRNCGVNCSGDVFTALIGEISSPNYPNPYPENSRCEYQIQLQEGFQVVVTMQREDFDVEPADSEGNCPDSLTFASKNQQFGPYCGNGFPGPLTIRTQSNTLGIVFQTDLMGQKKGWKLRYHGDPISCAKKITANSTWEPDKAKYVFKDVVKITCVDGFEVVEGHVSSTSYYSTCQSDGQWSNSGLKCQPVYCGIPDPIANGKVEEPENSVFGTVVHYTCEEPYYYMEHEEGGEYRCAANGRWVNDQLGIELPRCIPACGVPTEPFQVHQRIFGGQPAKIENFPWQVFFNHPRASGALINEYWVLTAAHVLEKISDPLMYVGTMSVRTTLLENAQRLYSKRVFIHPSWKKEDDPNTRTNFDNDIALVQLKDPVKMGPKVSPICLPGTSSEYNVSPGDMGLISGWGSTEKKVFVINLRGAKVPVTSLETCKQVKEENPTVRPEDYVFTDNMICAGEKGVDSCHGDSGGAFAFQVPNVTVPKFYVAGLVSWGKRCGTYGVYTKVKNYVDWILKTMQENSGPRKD
Method: as §1

- IC50, inhibition of IgM-induced C4 deposition from NHS [1]: 0.2 µg/mL
- IC50, inhibition of IgM-induced C4 deposition from CMS [2]: 0.2 µg/mL
- IC50, inhibition of cynomolgus monkey complement-mediated lysis of EA [2]: 0.1 µg/mL
- EC50 [3]: 0.003 µg/mL
- EC50 [4]: 0.003 µg/mL
- EC50 [5]: 0.002 µg/mL
- binding result [6]: no binding (tested: 1000 ng/ml (Log 3))
B1: Anti-C1s antibody hz2-8(H1L2) (antibody, V domains shown)
VH: QVQLVQSGAEVKKPGASVKVSCKASGFNIKEYYMHWVRQAPEQGLEWMGWIDPENGDTIYAQKFQGRVTITADTSTNTAYMELSSLRSEDTAVYYCARSRLFFAYWGQGTLVTVSS
VL: DIQMTQSPKSLSASVGDRVTITCRASQDVRTALDWYQQKPGQSPKLLIYSASYRYSGVPSRFSGSGSGTDFTLTISSLQPEDFATYYCQQQYTTPYTFGQGTKLEIKR
notes: Humanized, human IgG1 / kappa
- IC50, inhibition of human complement-mediated lysis of antibody-sensitized sheep erythrocytes (EA) [1]: 0.2 µg/mL
